Test results published in paper doi:10.1101/815886.

Columns and labels:
[1] = biological target: CST wild type (CTC1-STN1-TEN1) (human, UniProt Q2NKJ3;Q9H668;Q86WV5 1-1217;1-368;1-123); assay: cryo-EM
[2] = biological target: CST with CTC1 R1193E/R1195E (human, UniProt Q2NKJ3;Q9H668;Q86WV5 1-1217;1-368;1-123, R1193E;R1195E;CTC1:); assay: EMSA
[3] = biological target: CST with CTC1 K1164E/K1167E (human, UniProt Q2NKJ3;Q9H668;Q86WV5 1-1217;1-368;1-123, K1164E;K1167E;CTC1:); assay: EMSA
[4] = biological target: CST with CTC1 K743E/R744E (human, UniProt Q2NKJ3;Q9H668;Q86WV5 1-1217;1-368;1-123, K743E;R744E;CTC1:); assay: EMSA
Chain of CST with CTC1 K743E/R744E (Q2NKJ3 whole entry K743E/R744E, chain 1 of 3): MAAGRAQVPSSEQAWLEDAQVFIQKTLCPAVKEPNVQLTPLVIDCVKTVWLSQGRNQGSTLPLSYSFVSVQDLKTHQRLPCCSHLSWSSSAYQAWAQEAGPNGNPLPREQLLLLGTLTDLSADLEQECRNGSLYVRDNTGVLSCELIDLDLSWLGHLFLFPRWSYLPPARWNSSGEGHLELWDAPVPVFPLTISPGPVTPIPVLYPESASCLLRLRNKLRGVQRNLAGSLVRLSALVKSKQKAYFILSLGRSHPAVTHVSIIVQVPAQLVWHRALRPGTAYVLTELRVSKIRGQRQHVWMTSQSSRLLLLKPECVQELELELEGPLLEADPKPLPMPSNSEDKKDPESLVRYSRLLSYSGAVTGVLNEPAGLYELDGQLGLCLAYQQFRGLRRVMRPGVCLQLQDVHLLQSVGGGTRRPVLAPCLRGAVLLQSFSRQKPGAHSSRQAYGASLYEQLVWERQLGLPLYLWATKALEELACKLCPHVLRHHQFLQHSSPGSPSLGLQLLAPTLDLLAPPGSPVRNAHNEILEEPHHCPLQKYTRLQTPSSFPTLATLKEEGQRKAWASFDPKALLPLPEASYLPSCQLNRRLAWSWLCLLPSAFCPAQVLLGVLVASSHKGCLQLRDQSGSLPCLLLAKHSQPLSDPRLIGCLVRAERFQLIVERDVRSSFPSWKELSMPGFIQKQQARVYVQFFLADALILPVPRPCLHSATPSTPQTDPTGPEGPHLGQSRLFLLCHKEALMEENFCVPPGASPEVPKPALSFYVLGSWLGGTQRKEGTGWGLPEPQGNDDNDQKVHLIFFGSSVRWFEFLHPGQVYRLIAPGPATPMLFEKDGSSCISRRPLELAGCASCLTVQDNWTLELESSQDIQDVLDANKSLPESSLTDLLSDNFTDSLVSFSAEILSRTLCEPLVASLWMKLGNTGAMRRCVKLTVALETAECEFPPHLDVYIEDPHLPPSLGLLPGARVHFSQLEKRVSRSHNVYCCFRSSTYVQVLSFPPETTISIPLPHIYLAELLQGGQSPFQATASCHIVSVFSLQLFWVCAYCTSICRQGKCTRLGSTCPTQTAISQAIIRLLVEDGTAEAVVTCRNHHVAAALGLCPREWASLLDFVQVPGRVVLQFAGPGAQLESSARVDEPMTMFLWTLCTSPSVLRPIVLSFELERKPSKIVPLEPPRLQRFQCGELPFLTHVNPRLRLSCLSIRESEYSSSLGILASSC
Chain of CST with CTC1 K743E/R744E (Q9H668 whole entry, stated change not applied, chain 2 of 3): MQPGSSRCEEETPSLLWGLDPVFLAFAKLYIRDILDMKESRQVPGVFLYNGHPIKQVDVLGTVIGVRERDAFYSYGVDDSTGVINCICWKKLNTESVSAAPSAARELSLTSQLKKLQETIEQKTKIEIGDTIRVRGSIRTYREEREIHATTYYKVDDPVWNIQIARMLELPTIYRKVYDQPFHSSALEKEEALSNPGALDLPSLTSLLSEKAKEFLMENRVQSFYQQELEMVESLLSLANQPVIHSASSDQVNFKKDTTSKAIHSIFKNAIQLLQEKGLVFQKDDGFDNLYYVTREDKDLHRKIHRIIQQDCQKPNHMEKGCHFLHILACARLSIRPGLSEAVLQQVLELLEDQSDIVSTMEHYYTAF
Chain of CST with CTC1 K743E/R744E (Q86WV5 whole entry, stated change not applied, chain 3 of 3): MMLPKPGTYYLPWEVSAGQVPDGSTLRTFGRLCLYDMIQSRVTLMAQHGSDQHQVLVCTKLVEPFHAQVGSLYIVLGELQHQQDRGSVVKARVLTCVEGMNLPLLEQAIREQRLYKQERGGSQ

[5] = biological target: CST with CTC1 V967A/S979A/H980A (human, UniProt Q2NKJ3;Q9H668;Q86WV5 1-1217;1-368;1-123, V967A;S979A;H980A;CTC1:); assay: EMSA
Chain of CST with CTC1 V967A/S979A/H980A (Q2NKJ3 whole entry V967A/S979A/H980A, chain 1 of 3): as the sequence (Q2NKJ3 whole entry K743E/R744E, chain 1 of 3) above, with E743K, E744R, V967A, S979A, H980A counted along it
Chain of CST with CTC1 V967A/S979A/H980A (Q9H668 whole entry, stated change not applied, chain 2 of 3): as the sequence (Q9H668 whole entry, stated change not applied, chain 2 of 3) above
Chain of CST with CTC1 V967A/S979A/H980A (Q86WV5 whole entry, stated change not applied, chain 3 of 3): as the sequence (Q86WV5 whole entry, stated change not applied, chain 3 of 3) above

Chain of CST with CTC1 R1193E/R1195E (Q2NKJ3 whole entry R1193E/R1195E, chain 1 of 3): as the sequence (Q2NKJ3 whole entry K743E/R744E, chain 1 of 3) above, with E743K, E744R, R1193E, R1195E counted along it
Chain of CST with CTC1 R1193E/R1195E (Q9H668 whole entry, stated change not applied, chain 2 of 3): as the sequence (Q9H668 whole entry, stated change not applied, chain 2 of 3) above
Chain of CST with CTC1 R1193E/R1195E (Q86WV5 whole entry, stated change not applied, chain 3 of 3): as the sequence (Q86WV5 whole entry, stated change not applied, chain 3 of 3) above
Chain of CST with CTC1 K1164E/K1167E (Q2NKJ3 whole entry K1164E/K1167E, chain 1 of 3): as the sequence (Q2NKJ3 whole entry K743E/R744E, chain 1 of 3) above, with E743K, E744R, K1164E, K1167E counted along it
Chain of CST with CTC1 K1164E/K1167E (Q9H668 whole entry, stated change not applied, chain 2 of 3): as the sequence (Q9H668 whole entry, stated change not applied, chain 2 of 3) above
Chain of CST with CTC1 K1164E/K1167E (Q86WV5 whole entry, stated change not applied, chain 3 of 3): as the sequence (Q86WV5 whole entry, stated change not applied, chain 3 of 3) above
Chain of CST wild type (CTC1-STN1-TEN1) (Q2NKJ3 whole entry, chain 1 of 3): as the sequence (Q2NKJ3 whole entry K743E/R744E, chain 1 of 3) above, with E743K, E744R counted along it
Chain of CST wild type (CTC1-STN1-TEN1) (Q9H668 whole entry, chain 2 of 3): as the sequence (Q9H668 whole entry, stated change not applied, chain 2 of 3) above
Chain of CST wild type (CTC1-STN1-TEN1) (Q86WV5 whole entry, chain 3 of 3): as the sequence (Q86WV5 whole entry, stated change not applied, chain 3 of 3) above

TTAGGGTTAGGGTTAGGG (ssDNA) [3xTEL]: binds [1]; no binding [2]; no binding [3]. TTAGGGTTAGGGTTAGGG (ssDNA) [3xTEL]: binds [4]; no binding [5].
